According to the DeepSol protein solubility set:

Assay: soluble on expression in E. coli; label from the status in PepcDB or PDB records

Row | Sequence | soluble on expression in E. coli
1 | AHHHHHHGSLPKNYDPNEIEPKWQKYWLEEKIYKYKLEPDKPSYAIDTPPPFTSGTLHLGHVLSHTWIDIIARYKRMRGYNVLFPQGFDNHGLPTELKVEKEFGISKDQPEEFLKKCIEWTWQAIEKMRAQFIRIGYSADWDLEYHTMDDWYKAAVQKSLLDFYKKGLIYREEHPVYWCPRCRTSLAKAEVGYVEEEGYLYYIKLPLADGSGYIPIATTRPELMPACVAVFVHPDDERYKHLVGKKVKLPIYEREVPILADEDVDPNFGTGAVYNCTYGDEQDIVWQKRYNLPVIIAINEDGTMNENAGPYAGLKIEEARKKIAEDLEKMGLLYKKEKITHRVLRHTERSSCMAPIELLPKKQWFIKVREFTDDIVEVAKKINWYPEDMFLRLKDWAESMDWDWVISRQRVFGTPIPFWICKNGHIIPAREEDLPVDPRFDKPPVEKCPVCGAEIEPVTDVLDCWVDSSITPLIITKWHEAIKGDEEAKKWFEHNFPTALRPQGTDIIRTWAFYTIFRTYMLTGEKPWNDIVINGMVAGPDGRKMSKSYGNVVSPEEVIPKYGADALRLWTALAPPGEDHPFKWEIVDYNFRFLQKLWNIYRFAERHIKDFDYEKYKHIELEPLDRWILSRLHRIIKFATEELEKYRFNLITRELMTFIWHEVADDYIEMIKHRLYGEDEESKLKAKVALYELLYNIMLLLAPFVPHITEELYHHIFKEKIGEKSVHLLQWPEYREDRIDEEAEKIGELAREIVSAMRKYKNSHGMPLNAKLKHVAIYATDSYEMLKVIEKDIAGTMNIERLEIVKGEPQLEEKVVEIKPIYKRIGPRYGKLVPKIVKHLQENAEEIGRRIKEEGKVEFEVEGQKVVLEKEDIEIKKAVFSEGEEVETAVVRDATILFF | not soluble
2 | MGSSHHHHHHSSGLVPRGSHMNIPRFGVKTDQEELLAQELENLNKWGLNIFCVSDYAGGRSLTCIMYMIFQERDLLKKFRIPVDTMVTYMLTLEDHYHADVAYHNSLHAADVLQSTHVLLATPALDAVFTDLEILAALFAAAIHDVDHPGVSNQFLINTNSELALMYNDESVLENHHLAVGFKLLQEDNCDIFQNLSKRQRQSLRKMVIDMVLATDMSKHMTLLADLKTMVETKKVTSSGVLLLDNYSDRIQVLRNMVHCADLSNPTKPLELYRQWTDRIMAEFFQQGDRERERGMEISPMCDKHTASVEKSQVGFIDYIVHPLWETWADLVHPDAQEILDTLEDNRDWYYSAI | soluble
3 | AERPTLPIPDLLTTDARNRIQLTIGAGQSTFGGKTATTWGYNGNLLGPAVKLQRGKAVTVDIYNQLTEETTLHWHGLEVPGEVDGGPQGIIPPGGKRSVTLNVDQPAATCWFHPHQHGKTGRQVAMGLAGLVVIEDDEILKLMLPKQWGIDDVPVIVQDKKFSADGQIDYQLDVMTAAVGWFGDTLLTNGAIYPQHAAPRGWLRLRLLNGCNARSLNFATSDNRPLYVIASDGGLLPEPVKVSELPVLMGERFEVLVEVNDNKPFDLVTLPVSQMGMAIAPFDKPHPVMRIQPIAISASGALPDTLSSLPALPSLEGLTVRKLQLSMDGGANKINGQAFDMNKPMFAAAKGQYERWVISGVGDMMLHPFHIHGTQFRILSENGKPPAAHRAGWKDTVKVEGNVSEVLVKFNHDAPKEHAYMAHCHLLEHEDTGMMLGFTVGHHHHH | soluble
4 | MGSDKIHHHHHHSDDREMDDGRWKASALRVPLQVSSAVIKQEVVTRLAPDPVPLTEGAIGIFLSGTEPESGQEDSGYKVIDNRKYVYSEGHWGPPTANDTIYLVGNDADVCAYYPYKDSYTDKTVIPLQSQDYVETEDIYYALNTMINGFTPAITFDMVHAYSLVELKISRENYFMPCEISKITLKNSNLIKKGTINIAVDGSIHSSETGNYDLTTVTDASPHTLSVGESYVCRVLMIPVPLKIERTDAEGGEFGLSVSLVIDGQQMLVEIPYSELGEFRQGEKYVIGLKIKGTEIVPTVKALEWEDEEVNGGNKYPVE | not soluble
5 | MLIPSKLSRPVRLEHTVVRERLLAKLSGANNYRLVLITSPAGYGKTTLISQWAAGKNDLGWFSLDEGDNQQERFASYLIAAIQQATGNHCAASEAMVQKRQYASLSSLFAQLFIELADWQRPLYLVIDDYHLINNPVIHDAMRFFLRHQPENMTLVVLSRNLPQLGIANLRVRDQLLEIGSQQLAFTHQEAKQFFDCRLTSPIEADDSSRLCDDVAGWATALQLIALSARQNNSSAQHSARRFAGINASHLSDYLVDEVLDNVDARTRNFLLKSSLLRSMNDALIVRVTGEENGQMQLEEIERQGLFLQRMDDSGEWFRYHPLFGSFLRQRCQWELAVELPEIHRAAAESWMAQGFPSEAIHHALAAGDAKMLRDILLNHAWGMFNHSELGLLEQSLAALPWSNLLENPRLILLQAWLMQSQHRYSEVNTLLARAEQEMSVEMDTAMHGDFNALRAQVAINDGDQDEAERLSMVALEELPLANYYSRIVATSVHGEVLHCKGKLTKSLAVMQQTEQMARRHDVWHYALWSIIQQSEILFAQGFLQAAW | not soluble
6 | MGSDKIHHHHHHMLDNSIPTDSCLVSGATVSTDIETLYCNHHDWLQVWLRRRLSSAVDASDLAHDTFVRVLVSGRMPNAEQSRAFLTQIAKGLAVDLYRRRAIEEAYLAALAQLPENLAPSAEERVLALQVLLLLDTALGSLPSRVREVFLLSRLDGLTYSDIAQRRGISVATVRKYMLRAAQACHCVLNSPTGTAP | not soluble
7 | SAQKVEAKGGKGGNQWDDGSDHDAVTKIQVAVGGMGIQYIQFDYVKNGQTEQTPLRGIKGSTIPTDPFVINHPEEHLVSIEIWYKPDGLIQGLRFISNKKTSRFIGYDRGTRSFLQVQDKKIIGFHGSAGDNLNSLGAYFAPLTIPLTPAKPLPALGSDDGTAWDDGAYVGVKKVYVGQAQDGISAVKFVYDKSPEEVTGEEHGKSTLLGFEEFVLDYPSEYIIAVEGTYDKIFGSDGSVITMLRFKTNKQTSPPFGLEAGTAFELKEEGHKIVGFHGRADALLHKIGVHVRPVSN | soluble
8 | LFTPHWIVRYLVENSLGRLWMLNRPESSLVDRMEYYIKPEKQETDFLKINSPEEIKICDPACGSGHMLVYAFDLLYAIYEEEGYTPSEIPEMILTHNLFGIEIDKRAGELAGFALAMKARGKDRRFFNKQVHPNICMLENVAFEQGELNDYIETVGRELFTNAHRATLLQFAEADNFGSLIRPVAKDISDLLHLLESKNLSGNLSLLSTHQKVLKALKQADYLSPKYHVVVANPPYMGGKGMNNRLKTFAQDNYPDSKSDTFAMFIERNLDLAVKKGMVAMITMQSWMFLSSFEKLRENILSNDTILSMAHFGARAFDSIGGEVVSTTAFVLENAQHPDYKGSYLRLVDGN | not soluble
9 | MGSDKIHHHHHHMGQSEVNFYQQEVVELLKQVIEPNLKNDIVSLGMVRNLRIVDDYVYLRLYIGSHQQQLQTEVEAKLSALSWCKKTYIQICTIPGVKITLGISSGKGGVGKSTTAVNIAAALSLQGAKVGLLDADVYGPNVPQMLGLGQADVEVIQTPTGEKFLPLEVQGIKLMSVGLLAEENRPLAWRGPVLHKIITQFINDVEWGELDYLLIDLPPGTGDAQITIIQESPICGVILVTTPQQVAVADVRRNIYMFRQVGVPVLGIVENMSYLICGDCGSRTYIFGSGGGEQLATELQAPLLGQIPIDQRICSGGDSGNPIAISEQTSPASEVFRNIAIAIGLSFP | not soluble
10 | MDAIFNNNFEKYKDDPEMTRALMTSKESLEDENWDTYLQWFKENKYEVLEVKEGKNKSTLTVKATFNSFADIPNDDVMGIIFTEVYKASKNKIKSLDEEDDIFDEEFMINVTNKLMDKSKKETKEIKVYMDKVNGKWDLIEDEDNDDDIVNMELISTMTPLLEKFLEITTEFEGFEGF | not soluble
11 | MSLTSPKRNIVGFTIVNDKHEFAQRLINAFKAEAKANKYEALVATSQNSRISEREQILEFVHLKVDAIFITTLDDVYIGSAIEEAKKAGIPVFAIDRMIRSDAVVSSITSNNQMIGEQLASYIKNELIKQTGRSTGRIVEITGTANVYTTNERHRGFLKGIENEPTLSIVDSVSGNYDPVTSERVMRQVIDSGIPFDAVYCHNDDIAMGVLEALKKAKISGKIVVGIDGNRAILEAVDMKSMDATVVQSAEEMMKVAFSALKLHTKNKKIPDRFYTYSYLYDGSREGHHHHHH | soluble
12 | MAHHHHHHMALISQSFAERYAELVARVPTHTELLLDVQRREVGERKALEEMCQVAFQDVLHVAGVMIADKKALGRGALAHRNRFEVALYKKQTAVWFQAAPPRKVALPTTRPLHGFPHAAFAELCQEERELRQWHYGVERRLREHIEEACGRAWFFLNVINETARSESLSRQRLQHEEDEDFTAIKQSFFRAVPADYYRNVVIARYGQTISAIEQAKDLTFEELEEKVRAALMEEEEASWRSAYQYLQDMYDAQLFALNHREVLGRYELEEEERNTLFPLILQCCREDFGIVFYHIPALALHFNSSQPCLRALCVAQLQEAPRRMAATRSRFSWIPAFDLAGMASELGLEEDGDEIEDSAEGETQEAEGSTDGGDDLHNALPPPVDDMPPINTASTMVFEPEVGSSKVPEPETKREEAEVDTSQSAVVALAQRTHEESVLATEMEEHVPVSCAGEENE | soluble
13 | MVWSATSRTKYSIKKSFFGCSMIELSNVNLHYPVPGHFSHSLQTTISSKIGGVLGSSSAKDKEMKYVHALRDINLKLEDSSRLGIIGHNGAGKTTLLRLLSQVYPPTSGKVTIEGKISALTDFTLGMDPNATGLKNIEFRLVFMGCTFKEAQQAVEEIVAFSELGEFINLPVRTYSTGMFLRLAFAISTHFTPDILILDEVIGAGDETFREKALSRLESLIKKSRMVVLSSHDLNAIKQYCDQAIVMEKGEIVFNGTPQSCIDYYLNSVKK | not soluble
14 | MKQASAIPQPKTYGPLKNLPHLEKEQLSQSLWRIADELGPIFRFDFPGVSSVFVSGHNLVAEVCDEKRFDKNLGKGLQKVREFGGDGLFTSWTHEPNWQKAHRILLPSFSQKAMKGYHSMMLDIATQLIQKWSRLNPNEEIDVADDMTRLTLDTIGLCGFNYRFNSFYRDSQHPFITSMLRALKEAMNQSKRLGLQDKMMVKTKLQFQKDIEVMNSLVDRMIAERKANPDENIKDLLSLMLYAKDPVTGETLDDENIRYQIITFLIAGHETTSGLLSFAIYCLLTHPEKLKKAQEEADRVLTDDTPEYKQIQQLKYIRMVLNETLRLYPTAPAFSLYAKEDTVLGGEYPISKGQPVTVLIPKLHRDQNAWGPDAEDFRPERFEDPSSIPHHAYKPFGNGQRACIGMQFALQEATMVLGLVLKHFELINHTGYELKIKEALTIKPDDFKITVKPRKTAAINVQRKEQADIKAETKPKETKPKHGTPLLVLFGSNLGTAEGIAGELAAQGRQMGFTAETAPLDDYIGKLPEEGAVVIVTASYNGAPPDNAAGFVEWLKELEEGQLKGVSYAVFGCGNRSWASTYQRIPRLIDDMMKAKGASRLTAIGEGDAADDFESHRESWENRFWKETMDAFDINEIAQKEDRPSLSITFLSEATETPVAKAYGAFEGIVLENRELQTAASTRSTRHIELEIPAGKTYKEGDHIGILPKNSRELVQRVLSRFGLQSNHVIKVSGSAHMAHLPMDRPIKVVDLLSSYVELQEPASRLQLRELASYTVCPPHQKELEQLVSDDGIYKEQVLAKRLTMLDFLEDYPACEMPFERFLALLPSLKPRYYSISSSPKVHANIVSMTVGVVKASAWSGRGEYRGVASNYLAELNTGDAAACFIRTPQSGFQMPNDPETPMIMVGPGTGIAPFRGFIQARSVLKKEGSTLGEALLYFGCRRPDHDDLYREELDQAEQDGLVTIRRCYSRVENEPKGYVQHLLKQDTQKLMTLIEKGAHIYVCGDGSQMAPDVERTLRLAYEAEKAASQEESAVWLQKLQDQRRYVKDVW | soluble
15 | MGSDKIHHHHHHMDISIARTFLEVVKTGSFVNAAANLNISQTAVSARIRVLEEQLDRPMFVRNKAGARLTPAGEQFFRFATSLVQVWEAARTTVALPPGREAMVTIGAELSLWNPLLKHWLLWMRRECASVAIRTTIDRSERLMELVQDGSLDAAVLYGAPNRPGTLTELLFEEKLVLVRTTALSQPPGPEDLVGIDWGEDFAGSYRAAFPGGRNPVVAISYGPLALDYILEVGGSGYFRQGFVRPYLVDGRLELVPNSPEFAYPAYLVSSAKADRSMLDRIRAGLRAAASSAGV | not soluble
